Results published in PMC3493496, “Mechanism of Selective VEGF-A Binding by Neuropilin-1 Reveals a Basis for Specific Ligand Inhibition” (PLoS ONE, 2012).
“And” between values parts separate entries of the source, which are not always exact repeats. Equal values may be shown once. Read-outs that look alike come from different tables or passages of the source. Each block holds one molecule with its values, some of them ahead of it. No end group written: not given here.

T1: AP-fusion of full length Sema3F (AP-Sema3F; residues 20-779) (UniProt Q13275 20-779)
T1 construct: source: CHO cells, large-scale transient transfection from pAPtag-5
T1 sequence (looked up): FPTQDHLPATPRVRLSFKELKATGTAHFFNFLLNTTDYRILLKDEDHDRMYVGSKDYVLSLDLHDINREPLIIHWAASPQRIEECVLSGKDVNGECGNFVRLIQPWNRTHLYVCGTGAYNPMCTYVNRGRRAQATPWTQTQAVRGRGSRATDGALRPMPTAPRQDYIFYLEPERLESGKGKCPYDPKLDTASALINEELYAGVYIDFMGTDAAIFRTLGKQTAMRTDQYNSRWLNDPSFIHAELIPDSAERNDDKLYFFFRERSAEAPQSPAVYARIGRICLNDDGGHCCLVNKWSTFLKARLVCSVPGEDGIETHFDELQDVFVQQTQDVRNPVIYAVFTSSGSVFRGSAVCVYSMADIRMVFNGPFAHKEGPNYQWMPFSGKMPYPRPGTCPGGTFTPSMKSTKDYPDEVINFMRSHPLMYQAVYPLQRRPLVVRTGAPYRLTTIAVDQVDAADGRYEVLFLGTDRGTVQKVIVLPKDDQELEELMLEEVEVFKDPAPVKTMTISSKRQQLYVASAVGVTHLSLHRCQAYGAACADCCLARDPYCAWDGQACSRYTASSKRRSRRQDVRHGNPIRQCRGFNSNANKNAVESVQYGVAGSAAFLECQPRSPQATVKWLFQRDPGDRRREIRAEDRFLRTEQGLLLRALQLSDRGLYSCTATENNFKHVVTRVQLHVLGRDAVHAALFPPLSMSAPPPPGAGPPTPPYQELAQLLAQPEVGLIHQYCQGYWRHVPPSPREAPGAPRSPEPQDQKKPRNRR

T2: AP-fusion of the Sema3F Ig and basic domains (AP-Sema3F-Ig-basic; residues 605-779) (UniProt Q13275 605-779)
T2 construct: semaphorin 3F (Sema3F), Ig and basic domains, residues 605-779; source: CHO cells, large-scale transient transfection from pAPtag-5
T2 sequence (looked up): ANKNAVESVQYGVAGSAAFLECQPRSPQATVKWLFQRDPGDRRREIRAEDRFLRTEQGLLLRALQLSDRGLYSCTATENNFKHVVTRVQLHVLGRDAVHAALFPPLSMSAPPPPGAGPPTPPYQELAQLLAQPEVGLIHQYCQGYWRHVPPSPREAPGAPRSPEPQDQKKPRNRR

B1: C-furSema3A (peptide of the C-terminal basic domain of furin processed Sema3A; residues 718-769) (peptide, UniProt Q14563 718-769, looked up)
peptide: MDEFCEQVWKRDRKQRRQRPGHTPGNSNKWKHLQENKKGRNRRTHEFERAPR
modifications: also: dimer via intermolecular disulfide (oxidized)
notes: semaphorin 3A (Sema3A), C-terminal basic domain of the furin processed form, residues 718-769; source: synthetic peptide (Neo-Peptide, Cambridge, MA), oxidized and purified
B2: Nrp2 b1b2 domains (human neuropilin-2) (domain or fragment, UniProt O60462 276-595, looked up)
chain: QCNVPLGMESGRIANEQISASSTYSDGRWTPQQSRLHGDDNGWTPNLDSNKEYLQVDLRFLTMLTAIATQGAISRETQNGYYVKSYKLEVSTNGEDWMVYRHGKNHKVFQANNDATEVVLNKLHAPLLTRFVRIRPQTWHSGIALRLELFGCRVTDAPCSNMLGMLSGLIADSQISASSTQEYLWSPSAARLVSSRSGWFPRIPQAQPGEEWLQVDLGTPKTVKGVIIQGARGGDSITAVEARAFVRKFKVSYSLNGKDWEYIQDPRTQQPKLFEGNMHYDTPDIRRFDPIPAQYVRVYPERWSPAGIGMRLEVLGCDWT
notes: neuropilin-2 (Nrp2), human, b1b2 coagulation factor domains; Limits of the b1b2 construct are in the cited earlier work; also called soluble Nrp2; wild-type Nrp2
B3: Nrp1 b1b2 domains (human neuropilin-1) (domain or fragment, UniProt O14786 274-586, looked up)
chain: KCMEALGMESGEIHSDQITASSQYSTNWSAERSRLNYPENGWTPGEDSYREWIQVDLGLLRFVTAVGTQGAISKETKKKYYVKTYKIDVSSNGEDWITIKEGNKPVLFQGNTNPTDVVVAVFPKPLITRFVRIKPATWETGISMRFEVYGCKITDYPCSGMLGMVSGLISDSQITSSNQGDRNWMPENIRLVTSRSGWALPPAPHSYINEWLQIDLGEEKIVRGIIIQGGKHRENKVFMRKFKIGYSNNGSDWKMIMDDSKRKAKSFEGNNNYDTPELRTFPALSTRFIRIYPERATHGGLGLRMELLGCEVE
notes: neuropilin-1 (Nrp1), human, b1b2 coagulation factor domains; Limits of the b1b2 construct are in the cited earlier work; about residues 273-586 as I recall; also called soluble Nrp1; wild-type Nrp1
B4: C-furSema3F (peptide of the C-terminal basic domain of furin processed Sema3F; residues 740-779) (peptide, UniProt Q13275 740-779, looked up)
peptide: GLIHQYCQGYWRHVPPSPREAPGAPRSPEPQDQKKPRNRR
modifications: also: dimer via intermolecular disulfide (oxidized)
notes: semaphorin 3F (Sema3F), C-terminal basic domain of the furin processed form, residues 740-779; source: synthetic peptide (LifeTein, South Plainfield, NJ), oxidized and purified

Columns and labels:
VEGF-A165 = assay: AP-Nrp binding to VEGF-A affinity plates; settings: parent: est. 100; read off a plot
[1] = target: B3; assay: AP-fusion solid-phase plate binding assay (competition); C-furSema peptides titrated with AP-VEGF-A (100 µmole p-NPP hydrolyzed/min/L) in incubation buffer on low density Nrp1 affinity plates, 1 h at 25°C; pair: peptide and adsorbed Nrp1; settings: both partners purified
[2] = target: T1, AP-fusion of full length Sema3F …; assay: AP-fusion solid-phase plate binding assay (competition); low density Nrp1 affinity plates; soluble Nrp1 or Nrp2 combined with AP-Sema3F (648 µmole p-NPP hydrolyzed/min/L) in incubation buffer (20 mM Tris pH 7.5, 300 mM NaCl), 1 h at 25°C; whether AP-Sema3F was purified is not told
[3] = target: T2, AP-fusion of the Sema3F Ig and basic …; assay: AP-fusion solid-phase plate binding assay (competition); high density Nrp1 affinity plates (50 ng/µl); soluble Nrp1 or Nrp2 combined with AP-Sema3F-Ig-basic (181 µmole p-NPP hydrolyzed/min/L) in binding buffer (20 mM Tris pH 7.5, 50 mM NaCl), 1 hr at 25°C; whether the AP fusion was purified is not told
[4] = target: AP-fusion of VEGF-A164 (AP-VEGF-A); assay: AP-fusion solid-phase plate binding assay (competition); Nrp1 b1b2 adsorbed on 96 well plates (2.5 ng/µl, low density); soluble Nrp titrated with AP-VEGF-A (155 µmole p-NPP hydrolyzed/min/L) in 20 mM Tris pH 7.5, 300 mM NaCl, 1 hr at 25°C; retained AP activity read at 405 nm; whether AP-VEGF-A was purified is not given
[5] = target: AP-fusion of VEGF-A164 (AP-VEGF-A); assay: as above; remark: listed apart in the source

percent of parent (VEGF-A165): 34%
Molecule: AP-Nrp1 b1b2, wild-type K350Q; K351N; K352G

percent of parent (VEGF-A165): 310%
Molecule: AP-Nrp2 b1b2, wild-type 301-DGR-303 replaced by TN (DGR/TN)

percent of parent (VEGF-A165): 11%
Molecule: AP-Nrp1 b1b2, wild-type 299-TN-300 replaced by DGR (TN/DGR)

percent of parent (VEGF-A165): 38%
Molecule: AP-Nrp1 b1b2, wild-type E304Q; R305Q

percent of parent (VEGF-A165): 510%
Molecule: AP-Nrp2 b1b2, wild-type Q353K; N354K; G355K

percent of parent (VEGF-A165): 60%
Molecule: AP-Nrp2 b1b2, wild-type Q307E; Q308R

percent of parent (VEGF-A165): 310%
Molecule: AP-Nrp2 b1b2, wild-type R287E

percent of parent (VEGF-A165): 41%
Molecule: AP-Nrp1 b1b2, wild-type E285R

Molecule: B1
IC50 [1]: 67 nM

Molecule: B2
IC50 [2]: 2700 nM | IC50 [3]: 6200 nM | IC50 [4]: 310000 nM | IC50 [5]: 120000 nM and 160000 nM and 200000 nM

Molecule: B3
IC50 [2]: 2000 nM | IC50 [3]: 1200 nM | IC50 [4]: 1800 nM | IC50 [5]: 1600 nM and 2000 nM

Molecule: B4
IC50 [1]: 22 nM
